T1: Full-length Human OX40 (human, UniProt P43489 29-277)
T1 construct: also called OXF001; human OX40/CHO
T1 sequence: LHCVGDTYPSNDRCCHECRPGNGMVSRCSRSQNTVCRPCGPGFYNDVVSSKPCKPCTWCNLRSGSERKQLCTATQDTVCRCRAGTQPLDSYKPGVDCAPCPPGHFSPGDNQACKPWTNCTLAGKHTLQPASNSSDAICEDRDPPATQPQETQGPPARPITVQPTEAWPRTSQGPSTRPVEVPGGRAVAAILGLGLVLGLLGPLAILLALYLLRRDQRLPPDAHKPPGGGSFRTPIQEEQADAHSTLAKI

T2: Fc gamma receptor RIIA H131 on CHO-K1SV cells (human, UniProt P12318 34-317)
T2 construct: whole, on cells
T2 sequence (looked up): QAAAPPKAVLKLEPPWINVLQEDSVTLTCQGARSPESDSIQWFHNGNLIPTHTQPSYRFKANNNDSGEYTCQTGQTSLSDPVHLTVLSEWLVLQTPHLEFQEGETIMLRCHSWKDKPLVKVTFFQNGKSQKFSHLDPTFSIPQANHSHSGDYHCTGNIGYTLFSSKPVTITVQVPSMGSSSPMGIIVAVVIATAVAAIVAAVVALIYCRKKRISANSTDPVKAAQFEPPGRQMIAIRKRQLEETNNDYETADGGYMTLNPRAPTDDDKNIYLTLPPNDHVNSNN

T3: Fc gamma receptor RIIB/C on CHO-K1SV cells (human, UniProt P31994 43-310)
T3 construct: whole, on cells
T3 sequence (looked up): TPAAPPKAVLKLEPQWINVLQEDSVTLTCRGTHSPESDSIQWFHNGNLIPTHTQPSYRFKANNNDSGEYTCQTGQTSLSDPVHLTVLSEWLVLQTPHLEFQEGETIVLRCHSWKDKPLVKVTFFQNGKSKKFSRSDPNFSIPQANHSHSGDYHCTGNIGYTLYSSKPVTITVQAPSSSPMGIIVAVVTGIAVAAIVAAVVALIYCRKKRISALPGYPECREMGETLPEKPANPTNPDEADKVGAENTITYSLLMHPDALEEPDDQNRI

B1: FXX01066 (bispecific antibody)
chain: EVQLVQSGAEVKKPGASVKVSCKASGYTFTSYWMNWVRQAPGQGLEWMGNIYPSGGSTNYAQKFQGRVTMTVDTSTSTVYMELSSLRSEDTAVYYCASFSDGYYAYAMDYWGQGTLVTVSSGGGGSGGGGSGGGGSGGGGSEIVMTQSPATLSLSPGERATLSCRASQSVSSYLNWYQQKPGQAPRLLIYYASRRHTGIPARFSGSGSGTDFTLTISSLQPEDFAVYYCQQGYNLPYTFGQGTKVEIKEPKSSDKTHTCPPCPAPPAAAPSVFLFPPKPKDTLMISRTPEVTCVVVDVSHEDPEVKFNWYVDGVEVHNAKTKPREEQYNSTYRVVSVLTVLHQDWLNGKEYKCAVSNKALPAPIEKTISKAKGQPREPQVYTLPPSRDELTKNQVSLTCLVKGFYPSDIAVEWESNGQPENNYKTTPPVLDSDGSFFLYSKLTVDKSRWQQGNVFSCSVMHEALHNHYTQKSLSLSPGGGGSPSSYVLTQPPSVSVAPGQTARITCGGNNIGSKSVNWFQQKPGQAPVLVVYDDSGRPSGIPERFSGSTSGNTATLTISRVEAGDEADYYCQVWDSSSDHVVFGGGTKLTVLGGGGSGGGGSGGGGSGGGGSQVQLVESGGGVVQPGRSLRLSCAASGFTLSYYGMHWVRQAPGKGLEWVAAISHDGSDKYYADSVKGRFTISRDNSKNTLYLQMNSLRAEDTAVYYCSNDQFDPWGQGTLVTVSSR
notes: ADAPTIR scFv-Fc-scFv, anti-4-1BB (VH-VL) N-terminal, anti-OX40 C-terminal, PAA (del) Fc; also called FX01066
B2: TSC 1005 (other)
chain: EPKSSDKTHTCPPCPAPPVAAPSVFLFPPKPKDTLMISRTPEVTCVVVDVSHEDPEVKFNWYVDGVEVHNAKTKPREEQYNSTYRVVSVLTVLHQDWLNGKEYKCAVSNKALPAPIEKTISKAKGQPREPQVYTLPPSRDELTKNQVSLTCLVKGFYPSDIAVEWESNGQPENNYKTTPPVLDSDGSFFLYSKLTVDKSRWQQGNVFSCSVMHEALHNHYTQKSLSLSPG
notes: IgG1 Fc with E233P, L234V, L235A, deletion of G236, G237A, K322A (EU); also called PVAdel TSC01005

Assays:
Full-length Human OX40 [1] = molecular target: T1, Full-length Human OX40; test: flow cytometry, CHO cells expressing human OX40
Full-length Human 4-1BB = Full-length Human 4-1BB (human, UniProt Q07011 24-255); test: cell-based or functional assay
Full-length Human OX40 [2] = molecular target: T1, Full-length Human OX40; test: cell-based or functional assay
[3] = molecular target: T2, Fc gamma receptor RIIA H131 on CHO-K1SV …; test: flow cytometry, CHO-K1SV transfectants
Protocol: (§1) CHO-K1SV cells stably transfected with a series of FcγR receptors were incubated with each of the […] listed in Table 23. A typical experiment labeled approximately 100,000 cells per well, in 96-well plates, with a range of binding molecule concentrations of 1 to 1000 nM, in 100 μl of PBS buffer with 0.2% BSA and 2 mM EDTA, for 30 minutes on ice, followed by washes and incubation with PE-labeled minimum cross species reactive secondary antibody, goat anti-human IgG Fcγ, F(ab′)2 ([…]) for 30 minutes to 1 hour on ice. Signal from bound molecules was detected using a LSR-II™ flow cytometer (BD Biosciences) and analyzed by FlowJo flow cytometry analysis software. Mean fluorescence intensity (MFI) of bound molecules on cells was determined after exclusion of doublets.

[4] = molecular target: T3, Fc gamma receptor RIIB/C on CHO-K1SV …; test: flow cytometry, CHO-K1SV transfectants
Protocol: as §1

Chain of Full-length Human 4-1BB (Q07011 24-255): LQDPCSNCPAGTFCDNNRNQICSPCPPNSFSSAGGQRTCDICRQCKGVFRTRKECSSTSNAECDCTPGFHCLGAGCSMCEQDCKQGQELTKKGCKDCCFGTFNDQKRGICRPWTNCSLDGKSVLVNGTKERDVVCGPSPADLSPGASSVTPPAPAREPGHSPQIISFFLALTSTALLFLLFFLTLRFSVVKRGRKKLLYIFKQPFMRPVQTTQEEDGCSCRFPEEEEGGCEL

| Binder | EC50 (Full-length Human OX40 [1]) [nM] | 4-1BB Reporter Assay EC50 (Full-length Human 4-1BB) [nM] | 4-1BB Reporter Assay Max induction (Full-length Human 4-1BB) | OX40 Reporter Assay EC50 (Full-length Human OX40 [2]) [nM] | OX40 Reporter Assay Max induction (Full-length Human OX40 [2]) | binding result [3] | binding result [4] |
| --- | --- | --- | --- | --- | --- | --- | --- |
| B1 | 0.57 | 0.019 | 6.1e+06 | 0.012 | 534000 |  |  |
| B2 |  |  |  |  |  | no binding (tested: 1 to 1000 nM) | no binding (tested: 1 to 1000 nM) |

From patent publication US20220242962A1 (APTEVO RESEARCH AND DEVELOPMENT, published 2022)
